In US20230265151A1, “GIP/GLP1 CO-AGONIST COMPOUNDS” (priority 2020, published 2023):
Residue numbers refer to the chain shown, from its start.

Assays:
[1] = molecular target: human glucagon receptor (human, UniProt P47871 26-477); assay: cell-based or functional assay
[2] = molecular target: T1, human GLP-1 receptor (human, UniProt P43220 24-463); assay: SPA competition vs [125I]-GLP-1, hGLP-1R membranes
T1 construct: whole, on cells; also called hGLP-1R; human glucagon-like peptide-1 receptor
Protocol: The binding buffer contains 25 mM HEPES, pH 7.4, 2.5 mM CaCl₂, 1 mM MgCl₂, 0.1% (w/v) bacitracin, 0.003% (w/v) TWEEN®-20, and Roche Complete™ Protease Inhibitors without EDTA.
(§1) Data are analyzed using four-parameter (curve maximum, curve minimum, IC₅₀, Hill slope) nonlinear regression routines (Genedata Screener, version 12.0.4, Genedata AG, Basal, Switzerland). […] Values for Kᵢ are reported as the geometric mean, with error expressed as the standard error of the mean (SEM) and n is equal to the number of independent replicates (determined in assays performed on different days). Geometric Means are calculated as follows: […]

[3] = molecular target: T2, human glucagon receptor (human, UniProt P47871 26-477); assay: SPA competition vs [125I]-Gcg, hGcgR membranes
T2 construct: whole, on cells; also called hGCGR; hGcgR
Protocol: The binding buffer contains 25 mM 4-(2-hydroxyethyl)-1-piperazineethanesulfonic acid (HEPES), pH 7.4, 2.5 mM CaCl₂, 1 mM MgCh, 0.1% (w/v) bacitracin (Research Products), 0.003% (w/v) Polyoxyethylenesorbitan monolaurate (TWEEN®-20), and Roche Complete™ Protease Inhibitors without EDTA. […] Plates are sealed and mixed on a plate shaker (setting 6) for 1 minute and read with a PerkinElmer Trilux MicroBeta® scintillation counter after 12 hours of incubation/settling time at room temperature.
Data are analyzed using four-parameter (curve maximum, curve minimum, IC₅₀, Hill slope) nonlinear regression routines (Genedata Screener, version 12.0.4, Genedata AG, Basal, Switzerland). […] Values for Kᵢ are reported as the geometric mean, with error expressed as the standard error of the mean (SEM) and n is equal to the number of independent replicates (determined in assays performed on different days).
T2 sequence (P47871 26-477): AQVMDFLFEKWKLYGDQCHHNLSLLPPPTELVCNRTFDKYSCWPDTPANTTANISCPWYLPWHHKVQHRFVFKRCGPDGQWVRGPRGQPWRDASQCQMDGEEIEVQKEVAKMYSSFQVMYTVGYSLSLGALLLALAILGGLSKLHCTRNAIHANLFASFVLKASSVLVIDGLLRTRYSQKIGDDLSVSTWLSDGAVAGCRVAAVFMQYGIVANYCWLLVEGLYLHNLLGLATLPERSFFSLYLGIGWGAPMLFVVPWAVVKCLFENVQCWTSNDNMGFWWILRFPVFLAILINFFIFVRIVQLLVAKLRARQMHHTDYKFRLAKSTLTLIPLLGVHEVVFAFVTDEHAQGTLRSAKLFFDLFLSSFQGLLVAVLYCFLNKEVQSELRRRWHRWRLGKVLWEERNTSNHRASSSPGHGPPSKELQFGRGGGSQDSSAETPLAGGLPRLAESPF

[4] = molecular target: T3, human GIP receptor (human, UniProt P48546 22-466); assay: SPA competition vs [125I]-GIP, hGIPR membranes
T3 construct: whole, on cells; also called hGIPR; human glucose-dependent insulinotropic polypeptide receptor
T3 sequence (looked up): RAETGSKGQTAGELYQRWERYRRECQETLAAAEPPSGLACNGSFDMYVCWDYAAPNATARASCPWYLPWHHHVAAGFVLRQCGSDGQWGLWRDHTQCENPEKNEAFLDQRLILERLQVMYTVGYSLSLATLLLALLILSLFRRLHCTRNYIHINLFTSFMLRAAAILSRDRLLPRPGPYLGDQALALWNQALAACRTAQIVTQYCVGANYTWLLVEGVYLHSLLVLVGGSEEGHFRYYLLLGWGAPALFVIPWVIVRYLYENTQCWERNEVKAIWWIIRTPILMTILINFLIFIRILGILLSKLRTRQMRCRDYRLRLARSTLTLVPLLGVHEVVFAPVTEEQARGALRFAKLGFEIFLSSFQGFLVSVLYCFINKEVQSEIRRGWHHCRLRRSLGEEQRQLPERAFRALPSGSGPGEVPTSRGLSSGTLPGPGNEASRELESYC
Protocol: The binding buffer contains 25 mM HEPES, pH 7.4, 2.5 mM CaCl₂, 1 mM MgCl₂, 0.1% (w/v) bacitracin, 0.003% (w/v) TWEEN®-20, and Roche Complete™ Protease Inhibitors without EDTA. […] Plates are sealed and mixed on a plate shaker (setting 6) for 1 minute and read with a PerkinElmer Trilux MicroBeta® scintillation counter after 2.5 to 12 hours of incubation/settling time at room temperature.
as §1

B1: Y-Aib-EGT-αMeF(2F)-TSD-4Pal-SI-αMeL-LD-Orn-K((2-[2-(2-Amino-ethoxy)-ethoxy]-acetyl)2-(γ-Glu)-(4-(4-tert-butylphenyl)butanoyl))AQ-Aib-K((2-[2-(2-Amino-ethoxy)-et … (peptide)
peptide: YXEGTXTSDXSIXLDXKAQXKFIXXLIEGGPSSGAPPPS
modifications: Aib2, αMeF(2F)6, 4Pal10, αMeL13, Orn16, Aib20, D-Glu24, αMeY25; acylated K17, K21 (groups as in name); C-terminal amide
With B1 the “cAMP EC50 (1.0% HSA)” value [1] was over 9950 nM.

B2: Y-Aib-EGT-αMeF-TSD-4Pal-SI-αMeL-LD-Orn-K((2-[2-(2-Amino-ethoxy)-ethoxy]-acetyl)2-(γ-Glu)-CO-(CH2)12-CO2H)AQ-Aib-E-αMeF-I-(D-Glu)-αMeY-LIEGGK((2-[2-(2-Amino-etho … (peptide)
peptide: B1 peptide with K21E, F22X, P31K
modifications: Aib2, αMeF6, 4Pal10, αMeL13, Orn16, K17(Z1), Aib20, αMeF22, D-Glu24, αMeY25, K31(Z1), C-term NH2; Z1=AEEA2-(γ-Glu)-CO-(CH2)12-CO2H
With B2 the Ki [2] was 29 nM, the Ki [3] was 217 nM and the Ki [4] was 0.0761 nM.

B3: Y-Aib-EGT-αMeF(2F)-TSD-4Pal-SI-αMeL-LD-Orn-K((2-[2-(2-Amino-ethoxy)-ethoxy]-acetyl)2-(γ-Glu)-(4-(4-tert-butylphenyl)butanoyl))AQ-Aib-EFI-(D-Glu)-αMeY-LIEGGK((2- … (peptide)
peptide: B1 peptide with K21E, P31K
modifications: Aib2, αMeF(2F)6, 4Pal10, αMeL13, Orn16, K17(Z1), Aib20, D-Glu24, αMeY25, K31(Z1), C-term NH2; Z1=AEEA2-(γ-Glu)-(4-(4-tert-butylphenyl)butanoyl)
With B3 the Ki [3] was 637 nM.

B4: Y-Aib-EGT-αMeF(2F)-TSD-4Pal-SI-αMeL-LD-Orn-IAQ-Aib-EFI-(D-Glu)-αMeY-LIK((2-[2-(2-Amino-ethoxy)-ethoxy]-acetyl)2-(γ-Glu)-CO-(CH2)14-CH3)GGK((2-[2-(2-Amino-ethoxy … (peptide)
peptide: B1 peptide with K17I, K21E, E28K, P31K
modifications: Aib2, αMeF(2F)6, 4Pal10, αMeL13, Orn16, Aib20, D-Glu24, αMeY25, K28(Z1), K31(Z1), C-term NH2; Z1=AEEA2-(γ-Glu)-CO-(CH2)14-CH3
Work on B4 yielded a Ki [2] of 0.867 nM, a Ki [3] of 3.82 nM and a Ki [4] of 0.0863 nM.

B5: Y-Aib-EGT-αMeF(2F)-TSD-4Pal-SI-αMeL-LD-Orn-K((2-[2-(2-Amino-ethoxy)-ethoxy]-acetyl)2-CO-(CH2)12-CO2H)AQ-Aib-K((2-[2-(2-Amino-ethoxy)-ethoxy]-acetyl)2-CO-(CH2)12 … (peptide)
peptide: B1 peptide
modifications: Aib2, αMeF(2F)6, 4Pal10, αMeL13, Orn16, K17(Z1), Aib20, K21(Z1), D-Glu24, αMeY25, C-term NH2; Z1=AEEA2-CO-(CH2)12-CO2H
In the case of B5, the Ki [2] is reported as 0.881 nM, the Ki [3] is reported as 625 nM and the Ki [4] is reported as 0.0627 nM.

B6: Y-Aib-EGT-αMeF(2F)-TSD-4Pal-SI-αMeL-LD-Orn-K((2-[2-(2-Amino-ethoxy)-ethoxy]-acetyl)2-(γ-Glu)-CO-(CH2)14-CH3)AQ-Aib-K((2-[2-(2-Amino-ethoxy)-ethoxy]-acetyl)2-(γ- … (peptide)
peptide: B1 peptide
modifications: Aib2, αMeF(2F)6, 4Pal10, αMeL13, Orn16, K17(Z1), Aib20, K21(Z1), D-Glu24, αMeY25, C-term NH2; Z1=AEEA2-(γ-Glu)-CO-(CH2)14-CH3
B6 showed a Ki [2] of 0.246 nM, a Ki [3] of 0.293 nM and a Ki [4] of 0.0231 nM.

B7: Y-Aib-EGT-αMeF(2F)-TSD-4Pal-SI-αMeL-LD-Orn-IAQ-Aib-EFI-(D-Glu)-αMeY-LIK((2-[2-(2-Amino-ethoxy)-ethoxy]-acetyl)2-(γ-Glu)-CO-(CH2)12-CO2H)GGK((2-[2-(2-Amino-ethox … (peptide)
peptide: B1 peptide with K17I, K21E, E28K, P31K
modifications: Aib2, αMeF(2F)6, 4Pal10, αMeL13, Orn16, Aib20, D-Glu24, αMeY25, K28(Z1), K31(Z1), C-term NH2; Z1=AEEA2-(γ-Glu)-CO-(CH2)12-CO2H
For B7, the Ki [2] was 1.96 nM, the Ki [3] was 139 nM and the Ki [4] was 0.0722 nM.

B8: Y-Aib-EGT-αMeF(2F)-TSD-4Pal-SI-αMeL-LD-Orn-K((2-[2-(2-Amino-ethoxy)-ethoxy]-acetyl)2-(γ-Glu)-CO-(CH2)14-CH3)AQ-Aib-EFI-(D-Glu)-αMeY-LIEGK((2-[2-(2-Amino-ethoxy) … (peptide)
peptide: B1 peptide with K21E, G30K
modifications: Aib2, αMeF(2F)6, 4Pal10, αMeL13, Orn16, K17(Z1), Aib20, D-Glu24, αMeY25, K30(Z1), C-term NH2; Z1=AEEA2-(γ-Glu)-CO-(CH2)14-CH3
Binder B8 has a Ki [2] of 0.52 nM, a Ki [3] of 0.646 nM and a Ki [4] of 0.0361 nM.

B9: Y-Aib-EGT-αMeF(2F)-TSD-4Pal-SI-αMeL-LD-Orn-K((2-[2-(2-Amino-ethoxy)-ethoxy]-acetyl)2-(γ-Glu)-CO-(CH2)10-CH3)AQ-Aib-K((2-[2-(2-Amino-ethoxy)-ethoxy]-acetyl)2-(γ- … (peptide)
peptide: B1 peptide
modifications: Aib2, αMeF(2F)6, 4Pal10, αMeL13, Orn16, K17(Z1), Aib20, K21(Z1), D-Glu24, αMeY25, C-term NH2; Z1=AEEA2-(γ-Glu)-CO-(CH2)10-CH3
B9 was tested, and the Ki [2] was 0.25 nM, the Ki [3] was 8.29 nM and the Ki [4] was 0.0403 nM.

B10: Y-Aib-EGT-αMeF(2F)-TSD-4Pal-SI-αMeL-LD-Orn-IAQ-Aib-K((2-[2-(2-Amino-ethoxy)-ethoxy]-acetyl)2-(γ-Glu)-CO-(CH2)12-CO2H)FI-(D-Glu)-αMeY-LIK((2-[2-(2-Amino-ethoxy)- … (peptide)
peptide: B1 peptide with K17I, E28K
modifications: Aib2, αMeF(2F)6, 4Pal10, αMeL13, Orn16, Aib20, K21(Z1), D-Glu24, αMeY25, K28(Z1), C-term NH2; Z1=AEEA2-(γ-Glu)-CO-(CH2)12-CO2H
In the case of B10, the Ki [2] is reported as 3.38 nM, the Ki [3] is reported as 53.9 nM and the Ki [4] is reported as 0.0454 nM.

B11: Y-Aib-EGT-αMeF(2F)-TSD-4Pal-SI-αMeL-LD-Orn-K((2-[2-(2-Amino-ethoxy)-ethoxy]-acetyl)2-(γ-Glu)-CO-(CH2)14-CH3)AQ-Aib-EFI-(D-Glu)-αMeY-LIK((2-[2-(2-Amino-ethoxy)-e … (peptide)
peptide: B1 peptide with K21E, E28K
modifications: Aib2, αMeF(2F)6, 4Pal10, αMeL13, Orn16, K17(Z1), Aib20, D-Glu24, αMeY25, K28(Z1), C-term NH2; Z1=AEEA2-(γ-Glu)-CO-(CH2)14-CH3
B11 was tested, and the Ki [2] was 0.251 nM, the Ki [3] was 1.18 nM and the Ki [4] was 0.0238 nM.
